Data: the supplement of paper PMC10567573

B1: PCDHGA10 (parent)
chain: FHELQMQVTASDSGDPPLSSNVSL

Variants of: B1
Assay: protein stability index of a GFP-peptide fusion (GPS, HEK-293T) (PSI 1-6); higher = more stable
Conditions: c terminus: a fixed tail appended
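Also: lentivirally expressed fusions sorted by FACS into six bins by GFP to DsRed ratio, PSI derived from sequencing read proportions per bin multiplied by bin number.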

Variant | protein stability index
FHELGMQVTASDSGDPPLSSNVSL [Q5G] | 2.73
FHELHMQVTASDSGDPPLSSNVSL [Q5H] | 2.44
FHELIMQVTASDSGDPPLSSNVSL [Q5I] | 1.82
FHELKMQVTASDSGDPPLSSNVSL [Q5K] | 2.13
FHELLMQVTASDSGDPPLSSNVSL [Q5L] | 1.4
FHELMMQVTASDSGDPPLSSNVSL [Q5M] | 1.91
FHELNMQVTASDSGDPPLSSNVSL [Q5N] | 2.86
FHELPMQVTASDSGDPPLSSNVSL [Q5P] | 2.23
FHELRMQVTASDSGDPPLSSNVSL [Q5R] | 2.42
FHELSMQVTASDSGDPPLSSNVSL [Q5S] | 2.11
FHELTMQVTASDSGDPPLSSNVSL [Q5T] | 2.16
FHELVMQVTASDSGDPPLSSNVSL [Q5V] | 2.04
FHELWMQVTASDSGDPPLSSNVSL [Q5W] | 3.59
FHELYMQVTASDSGDPPLSSNVSL [Q5Y] | 1.87
FHELQAQVTASDSGDPPLSSNVSL [M6A] | 2.84
FHELQCQVTASDSGDPPLSSNVSL [M6C] | 2.47
FHELQDQVTASDSGDPPLSSNVSL [M6D] | 3.81
FHELQEQVTASDSGDPPLSSNVSL [M6E] | 3.77
FHELQFQVTASDSGDPPLSSNVSL [M6F] | 1.4
FHELQGQVTASDSGDPPLSSNVSL [M6G] | 3.07
FHELQHQVTASDSGDPPLSSNVSL [M6H] | 2.98
FHELQIQVTASDSGDPPLSSNVSL [M6I] | 1.65
FHELQKQVTASDSGDPPLSSNVSL [M6K] | 2.52
FHELQLQVTASDSGDPPLSSNVSL [M6L] | 2.58

Variant | protein stability index
FHELQNQVTASDSGDPPLSSNVSL [M6N] | 3.46
FHELQPQVTASDSGDPPLSSNVSL [M6P] | 3.87
FHELQQQVTASDSGDPPLSSNVSL [M6Q] | 3.54
FHELQRQVTASDSGDPPLSSNVSL [M6R] | 3
FHELQSQVTASDSGDPPLSSNVSL [M6S] | 3.29
FHELQTQVTASDSGDPPLSSNVSL [M6T] | 3.32
FHELQVQVTASDSGDPPLSSNVSL [M6V] | 2.56
FHELQWQVTASDSGDPPLSSNVSL [M6W] | 2.02
FHELQYQVTASDSGDPPLSSNVSL [M6Y] | 2.46
FHELQMAVTASDSGDPPLSSNVSL [Q7A] | 2.04
FHELQMCVTASDSGDPPLSSNVSL [Q7C] | 1.6
FHELQMDVTASDSGDPPLSSNVSL [Q7D] | 3.06
FHELQMEVTASDSGDPPLSSNVSL [Q7E] | 2.54
FHELQMFVTASDSGDPPLSSNVSL [Q7F] | 2.66
FHELQMGVTASDSGDPPLSSNVSL [Q7G] | 2.78
FHELQMHVTASDSGDPPLSSNVSL [Q7H] | 2.09
FHELQMIVTASDSGDPPLSSNVSL [Q7I] | 2.62
FHELQMKVTASDSGDPPLSSNVSL [Q7K] | 1.67
FHELQMLVTASDSGDPPLSSNVSL [Q7L] | 1.89
FHELQMMVTASDSGDPPLSSNVSL [Q7M] | 1.7
FHELQMNVTASDSGDPPLSSNVSL [Q7N] | 2
FHELQMPVTASDSGDPPLSSNVSL [Q7P] | 1.71
FHELQMRVTASDSGDPPLSSNVSL [Q7R] | 1.99
FHELQMSVTASDSGDPPLSSNVSL [Q7S] | 1.74

Variant | protein stability index
FHELQMTVTASDSGDPPLSSNVSL [Q7T] | 2.33
FHELQMVVTASDSGDPPLSSNVSL [Q7V] | 1.82
FHELQMWVTASDSGDPPLSSNVSL [Q7W] | 2.57
FHELQMYVTASDSGDPPLSSNVSL [Q7Y] | 2.69
FHELQMQATASDSGDPPLSSNVSL [V8A] | 3.11
FHELQMQCTASDSGDPPLSSNVSL [V8C] | 2.56
FHELQMQDTASDSGDPPLSSNVSL [V8D] | 4.05
FHELQMQETASDSGDPPLSSNVSL [V8E] | 3.94
FHELQMQFTASDSGDPPLSSNVSL [V8F] | 1.95
FHELQMQGTASDSGDPPLSSNVSL [V8G] | 3.3
FHELQMQHTASDSGDPPLSSNVSL [V8H] | 2.7
FHELQMQITASDSGDPPLSSNVSL [V8I] | 2.29
FHELQMQKTASDSGDPPLSSNVSL [V8K] | 3.06
FHELQMQLTASDSGDPPLSSNVSL [V8L] | 2.15
FHELQMQMTASDSGDPPLSSNVSL [V8M] | 2.28
FHELQMQNTASDSGDPPLSSNVSL [V8N] | 3.72
FHELQMQPTASDSGDPPLSSNVSL [V8P] | 3.33
FHELQMQQTASDSGDPPLSSNVSL [V8Q] | 3.51
FHELQMQRTASDSGDPPLSSNVSL [V8R] | 3.2
FHELQMQSTASDSGDPPLSSNVSL [V8S] | 3.07
FHELQMQTTASDSGDPPLSSNVSL [V8T] | 2.81
FHELQMQWTASDSGDPPLSSNVSL [V8W] | 1.25
FHELQMQYTASDSGDPPLSSNVSL [V8Y] | 2.01
FHELQMQVAASDSGDPPLSSNVSL [T9A] | 2.55

Variant | protein stability index
FHELQMQVCASDSGDPPLSSNVSL [T9C] | 1.93
FHELQMQVDASDSGDPPLSSNVSL [T9D] | 2.65
FHELQMQVEASDSGDPPLSSNVSL [T9E] | 3.53
FHELQMQVFASDSGDPPLSSNVSL [T9F] | 2.63
FHELQMQVGASDSGDPPLSSNVSL [T9G] | 2.86
FHELQMQVHASDSGDPPLSSNVSL [T9H] | 2.43
FHELQMQVIASDSGDPPLSSNVSL [T9I] | 2.09
FHELQMQVKASDSGDPPLSSNVSL [T9K] | 2.65
FHELQMQVLASDSGDPPLSSNVSL [T9L] | 1.99
FHELQMQVMASDSGDPPLSSNVSL [T9M] | 2.18
FHELQMQVNASDSGDPPLSSNVSL [T9N] | 2.83
FHELQMQVPASDSGDPPLSSNVSL [T9P] | 3.32
FHELQMQVQASDSGDPPLSSNVSL [T9Q] | 2.73
FHELQMQVRASDSGDPPLSSNVSL [T9R] | 2.88
FHELQMQVSASDSGDPPLSSNVSL [T9S] | 2.16
FHELQMQVVASDSGDPPLSSNVSL [T9V] | 2.12
FHELQMQVWASDSGDPPLSSNVSL [T9W] | 2.95
FHELQMQVYASDSGDPPLSSNVSL [T9Y] | 1.86
FHELQMQVTCSDSGDPPLSSNVSL [A10C] | 1.74
FHELQMQVTDSDSGDPPLSSNVSL [A10D] | 2.62
FHELQMQVTESDSGDPPLSSNVSL [A10E] | 2.7
FHELQMQVTFSDSGDPPLSSNVSL [A10F] | 1.97
